Assays:
Test in all cases: COS cells on LFA-1 coated plastic
[1] = target: ICAM-1 N175/A (human, UniProt P05362)
[2] = target: ICAM-1 K50V/EL (human, UniProt P05362)
[3] = target: ICAM-1 Y83/S (human, UniProt P05362)
[4] = target: ICAM-1 R49KV/EKL (human, UniProt P05362)
[5] = target: Intercellular Adhesion Molecule-1 (ICAM-1), wild type, on the cell surface (human) (UniProt P05362)
[6] = target: ICAM-1 R166PQ/EPA (human, UniProt P05362)
[7] = target: ICAM-1 Q1T/KA (human, UniProt P05362)
[8] = target: ICAM-1 Q27/L (human, UniProt P05362)
[9] = target: ICAM-1 S177/G (human, UniProt P05362)
[10] = target: ICAM-1 A115N/SV (printed A155N/SV at paragraph 410) (human) (UniProt P05362)
[11] = target: ICAM-1 H152HGA/EEGS (human, UniProt P05362)
[12] = target: ICAM-1 K77T/ES (human, UniProt P05362)

purified LFA-1, bound to plastic (from UniProt P20701) (receptor)
LFA-1 Binding % (% of wild type) [1]: 67
LFA-1 Binding % (% of wild type) [2]: 29
LFA-1 Binding % (% of wild type) [3]: 42
LFA-1 Binding % (% of wild type) [4]: 123
% of COS cells bound (mean) [5]: 33%
LFA-1 Binding % (% of wild type) [6]: 75
LFA-1 Binding % (% of wild type) [7]: 119
LFA-1 Binding % (% of wild type) [8]: 37
LFA-1 Binding % (% of wild type) [9]: 59
LFA-1 Binding % (% of wild type) [10]: 0
LFA-1 Binding % (% of wild type) [11]: 85
LFA-1 Binding % (% of wild type) [12]: 87

Reference: patent publication US20090035321A1, “Intercellular adhesion molecules and their binding ligands” (Boehringer Ingelheim Pharmaceuticals, Inc., published 2009)
